We go through nine molecules from patent US8741844B2, “Use of mutated antithrombins for treating or preventing coagulation disorders” (Universite Paris-Sud XI, priority 2007, dated 2014).

The test system of assay [1] is plasma anti FXa activity in mice treated with pentasaccharide. As to the kind of experiment: Murine model: mutated antithrombins as antidotes of fondaparinux, plasma anti FXa activity. Type of assay: in vivo, mouse. Conditions: injection of mutated antithrombin after fondaparinux. The procedure:
The efficiency of the mutated antithrombins AT-R393H(SEQ ID NO: 4), AT-Pro394 (SEQ ID NO: 6), AT-ΔR393-S394 (SEQ ID NO: 18), AT-ΔR393 (SEQ ID NO: 8), AT-ΔS394 (SEQ ID NO: 10), AT-N135Q-R393H(SEQ ID NO: 14), AT-N135Q-Pro394 (SEQ ID NO: 16), AT-N135Q-ΔR393-S394 (SEQ ID NO: 24), AT-N135Q-ΔR393 (SEQ ID NO: 20), AT-N135Q-A5394 (SEQ ID NO: 22) as antidotes is evaluated in a murine model.
The different drugs to be tested (fondaparinux, low molecular weight heparin, full length heparin and the mutated antithrombins) are administrated by intra-venous injection in the caudal vein to avoid the variability encountered when administration is performed subcutaneously. However, Heparin derivatives (fondaparinux, low molecular weight heparin and full length heparin) could also be administrated subcutaneously.
The blood is collected by punction in cave vein into tubes containing 0.105 mol/L trisodium citrate (1:10). Platelet-poor plasma is obtained by centrifugation at 2300 g for 10 minutes at 12° C. and stored at −80° C. until use.
The following elements are determined: • the doses of fondaparinux inducing an overdose in mice, • the mutated antithrombins time course, and in particular the time required to observe a maximal biological effect, • the minimal doses of mutated antithrombins necessary to neutralize fondaparinux.
For each of these experiments, 4 groups of 5 mice each are used: • In the first group mice receive fondaparinux vehicle and then antidote (mutated antithrombin) vehicle. • In the second group, mice receive fondaparinux and then antidote vehicle • In the third group, mice receive fondaparinux vehicle and then antidote • In the last group, mice receive fondaparinux and then antidote
Anti FXa activity measurements is performed as previously described using a Stachrom Heparin® kit on a STA (Stago, France) or a Rotachrom Heparin® kit with procedure adapted for measurement in microplate reader (Dynatech MR 5000). A calibration curve with pentasaccharide is performed, allowing the expression of the results in nmol/ml (or in mg/L) of plasma.
Thus, the antidote (mutated antithrombins) is administered intravenously, 5 min after the intra-venous injection of the fondaparinux, and 5, 15 or 30 min after the subcutaneous injection of the fondaparinux.
The mutated antithrombin time course is studied by measuring the plasma anti-Xa activity 5 min, 10 min, 20 min and 40 min after the antidote administration.
Once the time of action determined, a dose response curve is performed in vivo to determine the dose of antidote necessary to obtain a decrease in Fondaparinux plasma concentration within the therapeutic range around 1.2 nmol/ml (or 2 mg/L), or around 0.7 nmol/ml (or 1.2 mg/L).

Assay [2] deals with pentasaccharide bound murine antithrombin (plasma anti-Xa activity). As to the kind of experiment: Anti factor Xa assay in mouse plasma supplemented with Fondaparinux. Format: biochemical. The procedure:
During the animal experimentation (see detailed protocol below), human mutated antithrombins compete with murine antithrombin for their binding to the pentasaccharide. Thus, preliminary in vitro assays are performed to determine the human mutated antithrombin concentration necessary to compete with the murine antithrombin present in mouse plasma supplemented with Fondaparinux.
These experiments are performed as described in section II-b, using mouse plasma instead of human plasma.

In the case of “AT-R393H: human antithrombin (SEQ ID NO:2) with substitution of the amino acid at position 393 by Histidine”, the “plasma anti FXa activity in mice treated with pentasaccharide” value (“plasma anti FXa activity in mice treated” below) in assay [1] is on record as “significant decrease”. In addition, the “effect on anti-Xa activity of pentasaccharide contained in mouse plasma” value (from here on “effect on anti-Xa activity”) in assay [2] is “significant decrease”.
Take “AT-N135Q-R393H: human antithrombin with substitution at 393 by Histidine and at 135 by Glutamine”: the “plasma anti FXa activity in mice treated” value in assay [1] is listed as “significant decrease”. Moreover, in assay [2], the “effect on anti-Xa activity” value is given as “significant decrease”.

B1: AT-N135Q-ΔR393-S394: human antithrombin with deletion of positions 393 and 394 and substitution at 135 by Glutamine (protein, listed as Homo sapiens)
chain: HGSPVDICTAKPRDIPMNPMCIYRSPEKKATEDEGSEQKIPEATNRRVWELSKANSRFATTFYQHLADSKNDNDNIFLSPLSISTAFAMTKLGACNDTLQQLMEVFKFDTISEKTSDQIHFFFAKLNCRLYRKAQKSSKLVSANRLFGDKSLTFNETYQDISELVYGAKLQPLDFKENAEQSRAAINKWVSNKTEGRITDVIPSEAINELTVLVLVNTIYFKGLWKSKFSPENTRKELFYKADGESCSASMMYQEGKFRYRRVAEGTQVLELPFKGDDITMVLILPKPEKSLAKVEKELTPEVLQEWLDELEEMMLVVHMPRFRIEDGFSLKEQLQDMGLVDLFSPEKSKLPGIVAEGRDDLYVSDAFHKAFLEVNEEGSEAAASTAVVIAGLNPNRVTFKANRPFLVFIREVPLNTIIFMGRVANPCVK
Consider B1, for which the “plasma anti FXa activity in mice treated” value in assay [1] is “significant decrease”. Also, in assay [2], the “effect on anti-Xa activity” value is given as “significant decrease”.

B2: AT-ΔR393-S394: human antithrombin with deletion of the amino acids at positions 393 and 394 (protein, listed as Homo sapiens)
chain: HGSPVDICTAKPRDIPMNPMCIYRSPEKKATEDEGSEQKIPEATNRRVWELSKANSRFATTFYQHLADSKNDNDNIFLSPLSISTAFAMTKLGACNDTLQQLMEVFKFDTISEKTSDQIHFFFAKLNCRLYRKANKSSKLVSANRLFGDKSLTFNETYQDISELVYGAKLQPLDFKENAEQSRAAINKWVSNKTEGRITDVIPSEAINELTVLVLVNTIYFKGLWKSKFSPENTRKELFYKADGESCSASMMYQEGKFRYRRVAEGTQVLELPFKGDDITMVLILPKPEKSLAKVEKELTPEVLQEWLDELEEMMLVVHMPRFRIEDGFSLKEQLQDMGLVDLFSPEKSKLPGIVAEGRDDLYVSDAFHKAFLEVNEEGSEAAASTAVVIAGLNPNRVTFKANRPFLVFIREVPLNTIIFMGRVANPCVK
For B2, the “plasma anti FXa activity in mice treated” value in assay [1] is on record as “significant decrease”. In assay [2], the “effect on anti-Xa activity” value is reported as “significant decrease”.

B3: AT-N135Q-ΔR393: human antithrombin with deletion of position 393 and substitution at 135 by Glutamine (protein, listed as Homo sapiens)
chain: HGSPVDICTAKPRDIPMNPMCIYRSPEKKATEDEGSEQKIPEATNRRVWELSKANSRFATTFYQHLADSKNDNDNIFLSPLSISTAFAMTKLGACNDTLQQLMEVFKFDTISEKTSDQIHFFFAKLNCRLYRKAQKSSKLVSANRLFGDKSLTFNETYQDISELVYGAKLQPLDFKENAEQSRAAINKWVSNKTEGRITDVIPSEAINELTVLVLVNTIYFKGLWKSKFSPENTRKELFYKADGESCSASMMYQEGKFRYRRVAEGTQVLELPFKGDDITMVLILPKPEKSLAKVEKELTPEVLQEWLDELEEMMLVVHMPRFRIEDGFSLKEQLQDMGLVDLFSPEKSKLPGIVAEGRDDLYVSDAFHKAFLEVNEEGSEAAASTAVVIAGSLNPNRVTFKANRPFLVFIREVPLNTIIFMGRVANPCVK
In the case of B3, in assay [1], the “plasma anti FXa activity in mice treated” value is listed as “significant decrease”. Besides, the “effect on anti-Xa activity” value in assay [2] was “significant decrease”.

B4: AT-N135Q-ΔS394: human antithrombin with deletion of position 394 and substitution at 135 by Glutamine (protein, listed as Homo sapiens)
chain: HGSPVDICTAKPRDIPMNPMCIYRSPEKKATEDEGSEQKIPEATNRRVWELSKANSRFATTFYQHLADSKNDNDNIFLSPLSISTAFAMTKLGACNDTLQQLMEVFKFDTISEKTSDQIHFFFAKLNCRLYRKAQKSSKLVSANRLFGDKSLTFNETYQDISELVYGAKLQPLDFKENAEQSRAAINKWVSNKTEGRITDVIPSEAINELTVLVLVNTIYFKGLWKSKFSPENTRKELFYKADGESCSASMMYQEGKFRYRRVAEGTQVLELPFKGDDITMVLILPKPEKSLAKVEKELTPEVLQEWLDELEEMMLVVHMPRFRIEDGFSLKEQLQDMGLVDLFSPEKSKLPGIVAEGRDDLYVSDAFHKAFLEVNEEGSEAAASTAVVIAGRLNPNRVTFKANRPFLVFIREVPLNTIIFMGRVANPCVK
On to B4, for which the “plasma anti FXa activity in mice treated” value in assay [1] was “significant decrease”. The “effect on anti-Xa activity” value in assay [2] is “significant decrease”.

B5: AT-ΔR393: human antithrombin with deletion of the amino acid at position 393 (protein, listed as Homo sapiens)
chain: HGSPVDICTAKPRDIPMNPMCIYRSPEKKATEDEGSEQKIPEATNRRVWELSKANSRFATTFYQHLADSKNDNDNIFLSPLSISTAFAMTKLGACNDTLQQLMEVFKFDTISEKTSDQIHFFFAKLNCRLYRKANKSSKLVSANRLFGDKSLTFNETYQDISELVYGAKLQPLDFKENAEQSRAAINKWVSNKTEGRITDVIPSEAINELTVLVLVNTIYFKGLWKSKFSPENTRKELFYKADGESCSASMMYQEGKFRYRRVAEGTQVLELPFKGDDITMVLILPKPEKSLAKVEKELTPEVLQEWLDELEEMMLVVHMPRFRIEDGFSLKEQLQDMGLVDLFSPEKSKLPGIVAEGRDDLYVSDAFHKAFLEVNEEGSEAAASTAVVIAGSLNPNRVTFKANRPFLVFIREVPLNTIIFMGRVANPCVK
Consider B5, for which, in assay [1], the “plasma anti FXa activity in mice treated” value is “significant decrease”. In assay [2], the “effect on anti-Xa activity” value was “significant decrease”.

B6: AT-N135Q-Pro394: human antithrombin with Proline inserted between 393 and 394 and substitution at 135 by Glutamine (protein, listed as Homo sapiens)
chain: HGSPVDICTAKPRDIPMNPMCIYRSPEKKATEDEGSEQKIPEATNRRVWELSKANSRFATTFYQHLADSKNDNDNIFLSPLSISTAFAMTKLGACNDTLQQLMEVFKFDTISEKTSDQIHFFFAKLNCRLYRKAQKSSKLVSANRLFGDKSLTFNETYQDISELVYGAKLQPLDFKENAEQSRAAINKWVSNKTEGRITDVIPSEAINELTVLVLVNTIYFKGLWKSKFSPENTRKELFYKADGESCSASMMYQEGKFRYRRVAEGTQVLELPFKGDDITMVLILPKPEKSLAKVEKELTPEVLQEWLDELEEMMLVVHMPRFRIEDGFSLKEQLQDMGLVDLFSPEKSKLPGIVAEGRDDLYVSDAFHKAFLEVNEEGSEAAASTAVVIAGRPSLNPNRVTFKANRPFLVFIREVPLNTIIFMGRVANPCVK
For B6, in assay [1], the “plasma anti FXa activity in mice treated” value is given as “significant decrease”. Moreover, in assay [2], the “effect on anti-Xa activity” value was “significant decrease”.

B7: AT-Pro394: human antithrombin with insertion of a Proline between positions 393 and 394 (protein, listed as Homo sapiens)
chain: HGSPVDICTAKPRDIPMNPMCIYRSPEKKATEDEGSEQKIPEATNRRVWELSKANSRFATTFYQHLADSKNDNDNIFLSPLSISTAFAMTKLGACNDTLQQLMEVFKFDTISEKTSDQIHFFFAKLNCRLYRKANKSSKLVSANRLFGDKSLTFNETYQDISELVYGAKLQPLDFKENAEQSRAAINKWVSNKTEGRITDVIPSEAINELTVLVLVNTIYFKGLWKSKFSPENTRKELFYKADGESCSASMMYQEGKFRYRRVAEGTQVLELPFKGDDITMVLILPKPEKSLAKVEKELTPEVLQEWLDELEEMMLVVHMPRFRIEDGFSLKEQLQDMGLVDLFSPEKSKLPGIVAEGRDDLYVSDAFHKAFLEVNEEGSEAAASTAVVIAGRPSLNPNRVTFKANRPFLVFIREVPLNTIIFMGRVANPCVK
For B7, the “plasma anti FXa activity in mice treated” value in assay [1] is “significant decrease”. In assay [2], the “effect on anti-Xa activity” value is on record as “significant decrease”.
